Experimental data published in patent US20250066478A1 (IBIO, published 2025).

Target: T1, MUC16 membrane-proximal region (UniProt Q8WXI7 13810-14451)
T1 construct: domain: membrane-proximal region
T1 sequence: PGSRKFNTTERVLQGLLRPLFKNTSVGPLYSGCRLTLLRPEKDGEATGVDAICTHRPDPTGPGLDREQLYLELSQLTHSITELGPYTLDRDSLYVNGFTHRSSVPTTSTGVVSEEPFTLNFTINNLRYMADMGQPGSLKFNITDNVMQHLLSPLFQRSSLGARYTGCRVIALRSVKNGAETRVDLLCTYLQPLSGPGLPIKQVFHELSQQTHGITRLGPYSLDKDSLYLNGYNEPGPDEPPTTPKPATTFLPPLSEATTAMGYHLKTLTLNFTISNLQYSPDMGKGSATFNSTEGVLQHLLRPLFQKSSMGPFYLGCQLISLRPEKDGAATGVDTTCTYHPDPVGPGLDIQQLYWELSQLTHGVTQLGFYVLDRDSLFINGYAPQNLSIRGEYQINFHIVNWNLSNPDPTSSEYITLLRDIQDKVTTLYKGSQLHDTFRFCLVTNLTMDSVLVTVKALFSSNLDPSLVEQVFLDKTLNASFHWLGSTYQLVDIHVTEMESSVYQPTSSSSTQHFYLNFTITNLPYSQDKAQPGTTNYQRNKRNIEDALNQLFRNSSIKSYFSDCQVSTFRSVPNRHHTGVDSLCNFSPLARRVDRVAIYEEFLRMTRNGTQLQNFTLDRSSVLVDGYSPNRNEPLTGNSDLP
Test: FIG. 7A; method not named in the legend (Octet BLI or flow cytometry per the methods)

B1: 21G6 long linker mask on VH domain (antibody)
VH: NFTLDRSSVLVDGYSPNRNEPLTGNSDLPGGGGSSGGPGPAGMKGLPGSQVQLQESGPGLVKPSQTLSLTCTVSGYSITSDYAWNWIRQPPGKGLEWIGYISYSGSTIYNPSLKSRISISVDTSKNQFSLKLNSVTAADTAVYYCATLGLDYWGQGTLVTVSS
VL: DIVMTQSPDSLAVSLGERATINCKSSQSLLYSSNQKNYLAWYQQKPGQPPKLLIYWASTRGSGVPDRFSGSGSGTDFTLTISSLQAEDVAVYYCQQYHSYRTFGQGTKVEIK
notes: the methods give the format as IgG or scFv
binding result: no binding
